Laboratory results reported in PMC6829457, “Light-Regulation of Tryptophan Synthase by Combining Protein Design and Enzymology” (International Journal of Molecular Sciences, 2019).

Molecular target: T1, wild-type TrpB, beta subunit of tryptophan synthase from Salmonella typhimurium (Salmonella typhimurium, UniProt P0A2K1 1-397)
T1 construct: TrpB (tryptophan synthase beta chain), Salmonella typhimurium; it carries pyridoxal phosphate as internal aldimine on bK87
T1 sequence: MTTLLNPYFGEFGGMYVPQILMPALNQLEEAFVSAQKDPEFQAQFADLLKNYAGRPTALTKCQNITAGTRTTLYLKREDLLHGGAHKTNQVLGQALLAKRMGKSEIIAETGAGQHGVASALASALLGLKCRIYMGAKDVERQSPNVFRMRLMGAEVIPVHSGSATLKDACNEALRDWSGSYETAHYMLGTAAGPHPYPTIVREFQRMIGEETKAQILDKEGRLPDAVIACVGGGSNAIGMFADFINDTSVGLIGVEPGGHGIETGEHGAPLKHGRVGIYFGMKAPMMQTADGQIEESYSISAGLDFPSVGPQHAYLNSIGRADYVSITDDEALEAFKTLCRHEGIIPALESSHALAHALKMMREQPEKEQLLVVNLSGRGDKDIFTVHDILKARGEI
Test: SEC
Conditions: both partners purified

B1: wild-type TrpA, alpha subunit of tryptophan synthase from Salmonella typhimurium (enzyme, UniProt P00929 1-268, looked up)
chain: MERYENLFAQLNDRREGAFVPFVTLGDPGIEQSLKIIDTLIDAGADALELGVPFSDPLADGPTIQNANLRAFAAGVTPAQCFEMLALIREKHPTIPIGLLMYANLVFNNGIDAFYARCEQVGVDSVLVADVPVEESAPFRQAALRHNIAPIFICPPNADDDLLRQVASYGRGYTYLLSRSGVTGAENRGALPLHHLIEKLKEYHAAPALQGFGISSPEQVSAAVRAGAAGAISGSAIVKIIEKNLASPKQMLAELRSFVSAMKAASRA
notes: TrpA (tryptophan synthase alpha chain), Salmonella typhimurium
B1: binds.
